From US9327022 (NATIONAL RESEARCH COUNCIL OF CANADA, dated 2016)

Assays:
bovine serum albumin [1] = molecular target: T1, bovine serum albumin (bovine, UniProt P02769 25-607); assay: SPR (Biacore 3000), immobilized BSA, 4 h dissociation time
T1 construct: also called BSA; Bovine albumin
Method: (§1) 1700 RUs of BSA (Sigma) were immobilized on research grad CM5-sensorchip (BIACORE). Ethanolamin blocked surface was used as a reference. Immobilizations were carried out at the protein concentrations of 50 µg/ml in 10 mM acetate pH 4.5 using amin coupling kit supplied by the manufacturer. Antibodies were passed through Superdex 75™ (GE Healthcare) column to separate monomer prior to BIACORE analysis.
(§2) In all instances, analyses were carried out at 25 C in HBS-E buffer (10 mM HEPES, 150 mM NaCl, and 3 mM EDTA, pH 7.4) supplemented with 0.005% surfactant P20 at a flow rate of 20 µl/min. The surfaces were regenerated with 100 mM HCl (3 seconds). Data were analyzed with BIAevaluation 4.1 software.
(§3) Each binding was performed three times, and the obtained data were reproducible.

bovine serum albumin [2] = molecular target: T1, bovine serum albumin; assay: SPR (Biacore 3000), immobilized BSA
Method: as §1, §2

bovine serum albumin [3] = molecular target: T1, bovine serum albumin; assay: SPR (Biacore 3000), immobilized BSA, extended dissociation
Method: as §1, §2, §3

human serum albumin [4] = molecular target: T2, human serum albumin (human, UniProt P02768 25-609); assay: SPR (Biacore 3000), immobilized albumin; lower bound of the printed KD range
T2 construct: also called Human albumin

human serum albumin [5] = molecular target: T2, human serum albumin; assay: SPR (Biacore 3000), immobilized albumin; upper bound of the printed KD range
sheep serum albumin = molecular target: T3, sheep serum albumin (sheep, UniProt P14639 25-607); assay: SPR (Biacore 3000), immobilized albumin
T3 construct: also called Sheep albumin
Method: as §1, §2

goat serum albumin = molecular target: T4, goat serum albumin (goat); assay: SPR (Biacore 3000), immobilized albumin
T4 construct: also called Goat albumin
T4 sequence (P85295 whole entry, looked up): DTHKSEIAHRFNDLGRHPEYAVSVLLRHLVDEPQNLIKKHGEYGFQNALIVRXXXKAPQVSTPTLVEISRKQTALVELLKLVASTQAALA
Method: as §1, §2

murine serum albumin = molecular target: T5, murine serum albumin (murine, UniProt P07724 25-608); assay: SPR (Biacore 3000), immobilized albumin
T5 construct: also called Murine albumin
Method: as §1, §2

bovine serum albumin [6] = molecular target: T1, bovine serum albumin; assay: SPR (Biacore 3000), immobilized albumin
Method: as §1, §2

porcine serum albumin = molecular target: T6, porcine serum albumin (porcine, UniProt P08835 25-607); assay: SPR (Biacore 3000), immobilized albumin
T6 construct: also called Porcine albumin
Method: as §1, §2

guinea pig serum albumin = molecular target: T7, guinea pig serum albumin (guinea pig); assay: SPR (Biacore 3000), immobilized albumin
T7 construct: also called Guinea pig albumin
Method: as §1, §2

canine serum albumin = molecular target: T8, canine serum albumin (canine, UniProt P49822 25-608); assay: SPR (Biacore 3000), immobilized albumin
T8 construct: also called Canine albumin
Method: as §1, §2

bovine serum albumin [7] = molecular target: T1, bovine serum albumin; assay: SPR (Biacore 3000), immobilized BSA; remark: listed apart in the source
Method: as §1, §2

T1 sequence (P02769 25-607 limits assumed): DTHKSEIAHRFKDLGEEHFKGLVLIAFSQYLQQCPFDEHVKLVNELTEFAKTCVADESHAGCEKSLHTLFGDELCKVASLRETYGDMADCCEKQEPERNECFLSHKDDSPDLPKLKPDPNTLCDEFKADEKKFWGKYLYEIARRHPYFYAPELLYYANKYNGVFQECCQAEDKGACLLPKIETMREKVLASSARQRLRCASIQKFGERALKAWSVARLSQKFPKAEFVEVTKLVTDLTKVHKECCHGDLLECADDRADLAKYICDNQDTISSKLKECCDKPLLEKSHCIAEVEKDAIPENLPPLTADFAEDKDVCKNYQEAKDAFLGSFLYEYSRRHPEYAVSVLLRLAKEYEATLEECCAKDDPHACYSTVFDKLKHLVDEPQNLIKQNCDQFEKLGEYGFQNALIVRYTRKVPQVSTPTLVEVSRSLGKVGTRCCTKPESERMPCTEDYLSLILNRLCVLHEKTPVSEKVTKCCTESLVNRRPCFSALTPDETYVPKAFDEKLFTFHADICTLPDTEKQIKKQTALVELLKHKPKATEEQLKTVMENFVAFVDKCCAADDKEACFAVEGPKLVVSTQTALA
T6 sequence (P08835 25-607 limits assumed): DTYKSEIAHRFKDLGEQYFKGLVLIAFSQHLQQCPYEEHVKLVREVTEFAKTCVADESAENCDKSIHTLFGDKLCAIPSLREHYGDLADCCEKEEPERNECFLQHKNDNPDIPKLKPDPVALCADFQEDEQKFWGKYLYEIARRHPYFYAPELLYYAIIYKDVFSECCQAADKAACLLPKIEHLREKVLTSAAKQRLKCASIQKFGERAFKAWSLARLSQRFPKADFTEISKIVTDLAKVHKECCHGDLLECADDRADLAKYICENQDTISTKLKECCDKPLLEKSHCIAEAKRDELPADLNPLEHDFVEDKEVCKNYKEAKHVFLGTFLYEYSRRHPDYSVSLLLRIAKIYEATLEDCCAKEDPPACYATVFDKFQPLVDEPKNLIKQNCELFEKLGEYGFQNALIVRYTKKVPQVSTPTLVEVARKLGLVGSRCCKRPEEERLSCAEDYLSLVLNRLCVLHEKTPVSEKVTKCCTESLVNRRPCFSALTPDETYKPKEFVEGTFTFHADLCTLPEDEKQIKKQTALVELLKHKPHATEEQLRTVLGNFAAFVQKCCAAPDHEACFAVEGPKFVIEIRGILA
T2 sequence (P02768 25-609 limits assumed): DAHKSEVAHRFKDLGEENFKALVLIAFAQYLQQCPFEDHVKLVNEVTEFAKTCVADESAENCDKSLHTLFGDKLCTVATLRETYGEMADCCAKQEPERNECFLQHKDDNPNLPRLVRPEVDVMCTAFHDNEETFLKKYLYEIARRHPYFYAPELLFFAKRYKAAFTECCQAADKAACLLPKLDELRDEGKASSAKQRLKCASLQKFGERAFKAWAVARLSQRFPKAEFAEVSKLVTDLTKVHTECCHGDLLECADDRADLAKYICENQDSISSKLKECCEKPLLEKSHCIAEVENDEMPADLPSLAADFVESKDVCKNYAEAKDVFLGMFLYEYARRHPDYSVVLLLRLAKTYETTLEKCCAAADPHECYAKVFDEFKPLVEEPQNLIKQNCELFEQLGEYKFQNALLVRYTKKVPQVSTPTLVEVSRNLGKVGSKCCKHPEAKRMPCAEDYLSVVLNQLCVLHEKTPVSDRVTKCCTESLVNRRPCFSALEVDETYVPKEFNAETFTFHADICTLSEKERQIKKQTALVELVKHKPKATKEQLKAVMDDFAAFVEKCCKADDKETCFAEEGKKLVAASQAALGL
T8 sequence (P49822 25-608 limits assumed): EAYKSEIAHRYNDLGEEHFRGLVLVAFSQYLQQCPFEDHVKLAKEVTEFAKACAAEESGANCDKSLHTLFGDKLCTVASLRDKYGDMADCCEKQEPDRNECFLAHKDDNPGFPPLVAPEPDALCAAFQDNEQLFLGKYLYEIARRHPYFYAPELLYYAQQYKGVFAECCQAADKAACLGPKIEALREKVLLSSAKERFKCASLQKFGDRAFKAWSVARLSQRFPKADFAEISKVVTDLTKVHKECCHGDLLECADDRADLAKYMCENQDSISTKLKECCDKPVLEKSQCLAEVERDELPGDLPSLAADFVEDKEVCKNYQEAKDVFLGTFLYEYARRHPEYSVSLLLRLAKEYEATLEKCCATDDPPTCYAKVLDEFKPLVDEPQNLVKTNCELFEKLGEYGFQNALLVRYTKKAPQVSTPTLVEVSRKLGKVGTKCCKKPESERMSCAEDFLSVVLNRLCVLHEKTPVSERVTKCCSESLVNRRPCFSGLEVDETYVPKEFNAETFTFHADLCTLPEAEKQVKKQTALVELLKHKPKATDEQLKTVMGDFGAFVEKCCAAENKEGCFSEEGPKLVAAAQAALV
T3 sequence (P14639 25-607 limits assumed): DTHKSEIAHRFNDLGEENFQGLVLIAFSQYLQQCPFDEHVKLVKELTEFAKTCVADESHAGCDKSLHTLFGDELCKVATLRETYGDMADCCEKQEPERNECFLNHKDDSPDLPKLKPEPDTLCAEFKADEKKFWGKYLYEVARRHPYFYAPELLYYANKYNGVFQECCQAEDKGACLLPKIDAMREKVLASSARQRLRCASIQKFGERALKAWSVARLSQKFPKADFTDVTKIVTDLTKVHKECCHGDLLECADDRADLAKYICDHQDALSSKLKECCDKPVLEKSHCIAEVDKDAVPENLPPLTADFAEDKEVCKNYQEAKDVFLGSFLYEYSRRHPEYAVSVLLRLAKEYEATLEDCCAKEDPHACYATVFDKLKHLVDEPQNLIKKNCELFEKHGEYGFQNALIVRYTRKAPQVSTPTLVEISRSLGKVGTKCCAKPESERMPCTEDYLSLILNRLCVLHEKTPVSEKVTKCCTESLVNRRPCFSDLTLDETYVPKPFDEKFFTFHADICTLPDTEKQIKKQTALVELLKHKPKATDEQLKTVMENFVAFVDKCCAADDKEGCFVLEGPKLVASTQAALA

B1: BSA12 (VHH)
VHH: QVKLEESGGGLVQVGDSLRLSCAASGRTFSNYTMAWFRQFPGKEREFVAVVSRGGGATDYADSVKGRFTISRDNAKNTMYLQMNSLKTDTAVYYCAAGTDLSYYYSTKKWAYWGQGTQVTVSS
notes: also called sdAb BSA12; pBSA12 product
**Q.** Which results are given for B1?
**A.** koff (bovine serum albumin [1]): 9e-06 s⁻¹; Kd (bovine serum albumin [2]): 0.004 nM; kon (bovine serum albumin [2]): 2.5e+06 M⁻¹ s⁻¹; koff (bovine serum albumin [3]): 1e-05 s⁻¹; Kd (human serum albumin [4]): > 10000 nM; Kd (human serum albumin [5]): < 500000 nM; Kd (sheep serum albumin): 1000 nM; Kd (goat serum albumin): 240 nM; koff (goat serum albumin): 0.3 s⁻¹; kon (goat serum albumin): 1.2e+06 M⁻¹ s⁻¹; Kd (murine serum albumin): 59 nM; koff (murine serum albumin): 0.16 s⁻¹; kon (murine serum albumin): 2.7e+06 M⁻¹ s⁻¹; Kd (bovine serum albumin [6]): 0.0036 nM; koff (bovine serum albumin [6]): 9e-06 s⁻¹; kon (bovine serum albumin [6]): 2.5e+06 M⁻¹ s⁻¹; Kd (porcine serum albumin): 380 nM; koff (porcine serum albumin): 0.22 s⁻¹; kon (porcine serum albumin): 680000 M⁻¹ s⁻¹; Kd (guinea pig serum albumin): 730 nM; koff (guinea pig serum albumin): 0.6 s⁻¹; kon (guinea pig serum albumin): 830000 M⁻¹ s⁻¹; Kd (canine serum albumin): 1400 nM

B2: BSA8 (VHH)
VHH: QVKLEESGGGLAQAGGSLRLSCAASERTFIRYTIGWFRQAPGKEREFVGRVNWSGGDTYYADSVKGRFTISRDNAKTTVTLQMSSLKPEDTAVYSCAASPKWSEIPREYIYWGPGTQVTVSS
notes: also called sdAb BSA8; pBSA8 product
**Q.** What does the source list for B2?
**A.** koff (bovine serum albumin [7]): 0.005 s⁻¹; Kd (bovine serum albumin [2]): ~100 nM

B3: BSA16 (VHH)
VHH: QVKLEESGGGLVQAGGSLRLSCAPSGRTFRTWRMGWFRQAPGKEREFVAAINLNTGNTYYVDSVKGRFTISGDYAKNTLYLQMNSLKPEDTAVYFCAARSPDSDYVPLSSIDYQYWGQGTQVTVSS
notes: also called sdAb BSA16; pBSA16 product
**Q.** Which Kd (bovine serum albumin [2]) does the source give for B3 here?
**A.** The Kd was 280 nM.

**Q.** And the koff (bovine serum albumin [2])?
**A.** Its koff is 0.27 s⁻¹.

**Q.** What about the kon (bovine serum albumin [2]) of the same binder?
**A.** The kon was 1e+06 M⁻¹ s⁻¹.
